Measured values: the supplement of paper PMC9112550, “Optimization of the antimicrobial peptide Bac7 by deep mutational scanning” (BMC Biology, 2022)

Tested on: Escherichia coli TOP10
Assay: shrunken log2 fold change of peptide-encoding DNA abundance (4.5 h post-induction vs induction); higher = less antimicrobial activity (less host growth inhibition)
Settings: time post-induction: 4.5 h; library: site-saturation at positions 5, 18, 19, 20
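Also: peptides expressed intracellularly from a pBAD plasmid library in pooled LB shake-flask culture, induced with 0.3% L-arabinose, DNA abundance read by NGS, three biological replicates, DESeq2 with apeglm shrinkage.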

In the case of RRIRKRPPRLPRPRPRPFMAPRP, the “shrunken log2 fold change” value is reported as 0.0398.

With RRIRKRPPRLPRPRPRPFMTPRP the “shrunken log2 fold change” value was 0.168.

In the case of RRIRKRPPRLPRPRPRPFMVPRP, the “shrunken log2 fold change” value is reported as -0.145.

In the case of RRIRKRPPRLPRPRPRPFMYPRP, the “shrunken log2 fold change” value is reported as -0.401.

For RRIRKRPPRLPRPRPRPFNDPRP, the “shrunken log2 fold change” value was -0.135.

For RRIRKRPPRLPRPRPRPFNQPRP, the “shrunken log2 fold change” value was -0.0503.

With RRIRKRPPRLPRPRPRPFPQPRP the “shrunken log2 fold change” value was 0.11.

With RRIRKRPPRLPRPRPRPFPWPRP the “shrunken log2 fold change” value was 0.582.

With RRIRKRPPRLPRPRPRPFRHPRP the “shrunken log2 fold change” value was -0.0849.

With RRIRKRPPRLPRPRPRPFSTPRP the “shrunken log2 fold change” value was -0.187.

RRIRKRPPRLPRPRPRPFWWPRP was tested, and the “shrunken log2 fold change” value was 0.592.

In the case of RRIRKRPPRLPRPRPRPFYGPRP, the “shrunken log2 fold change” value is reported as -0.0306.

For RRIRKRPPRLPRPRPRPFYLPRP, the “shrunken log2 fold change” value was -0.154.

In the case of RRIRKRPPRLPRPRPRPFYQPRP, the “shrunken log2 fold change” value is reported as -0.101.

With RRIRKRPPRLPRPRPRPGAFPRP the “shrunken log2 fold change” value was 0.369.

In the case of RRIRKRPPRLPRPRPRPGATPRP, the “shrunken log2 fold change” value is reported as 1.09.

With RRIRKRPPRLPRPRPRPGCAPRP the “shrunken log2 fold change” value was 0.82.

RRIRKRPPRLPRPRPRPGCCPRP was tested, and the “shrunken log2 fold change” value was 0.722.

For RRIRKRPPRLPRPRPRPGCQPRP, the “shrunken log2 fold change” value was 0.702.

For RRIRKRPPRLPRPRPRPGCWPRP, the “shrunken log2 fold change” value was 0.466.

RRIRKRPPRLPRPRPRPGDIPRP was tested, and the “shrunken log2 fold change” value was -0.227.

In the case of RRIRKRPPRLPRPRPRPGEFPRP, the “shrunken log2 fold change” value is reported as 0.242.

With RRIRKRPPRLPRPRPRPGEYPRP the “shrunken log2 fold change” value was 0.156.

With RRIRKRPPRLPRPRPRPGKCPRP the “shrunken log2 fold change” value was 0.0131.

In the case of RRIRKRPPRLPRPRPRPGKEPRP, the “shrunken log2 fold change” value is reported as 0.266.

For RRIRKRPPRLPRPRPRPGKSPRP, the “shrunken log2 fold change” value was 0.0157.

RRIRKRPPRLPRPRPRPGLEPRP was tested, and the “shrunken log2 fold change” value was 1.18.

For RRIRKRPPRLPRPRPRPGMMPRP, the “shrunken log2 fold change” value was 0.308.

In the case of RRIRKRPPRLPRPRPRPGMTPRP, the “shrunken log2 fold change” value is reported as 0.129.

In the case of RRIRKRPPRLPRPRPRPGNPPRP, the “shrunken log2 fold change” value is reported as 0.85.

For RRIRKRPPRLPRPRPRPGQMPRP, the “shrunken log2 fold change” value was 0.00812.

With RRIRKRPPRLPRPRPRPGRQPRP the “shrunken log2 fold change” value was 0.143.

With RRIRKRPPRLPRPRPRPGTFPRP the “shrunken log2 fold change” value was 0.253.

For RRIRKRPPRLPRPRPRPGVMPRP, the “shrunken log2 fold change” value was 0.895.

For RRIRKRPPRLPRPRPRPGWKPRP, the “shrunken log2 fold change” value was 0.0274.

With RRIRKRPPRLPRPRPRPGWVPRP the “shrunken log2 fold change” value was 0.573.

With RRIRKRPPRLPRPRPRPGWYPRP the “shrunken log2 fold change” value was -0.0717.

For RRIRKRPPRLPRPRPRPHAPPRP, the “shrunken log2 fold change” value was 0.485.

For RRIRKRPPRLPRPRPRPHCLPRP, the “shrunken log2 fold change” value was -0.0309.

With RRIRKRPPRLPRPRPRPHDLPRP the “shrunken log2 fold change” value was 0.00698.

RRIRKRPPRLPRPRPRPHDNPRP was tested, and the “shrunken log2 fold change” value was 0.029.

RRIRKRPPRLPRPRPRPHEEPRP was tested, and the “shrunken log2 fold change” value was 0.0526.

In the case of RRIRKRPPRLPRPRPRPHIYPRP, the “shrunken log2 fold change” value is reported as -0.175.

With RRIRKRPPRLPRPRPRPHKQPRP the “shrunken log2 fold change” value was 0.164.

With RRIRKRPPRLPRPRPRPHMFPRP the “shrunken log2 fold change” value was -0.469.

In the case of RRIRKRPPRLPRPRPRPHNDPRP, the “shrunken log2 fold change” value is reported as 0.00261.

With RRIRKRPPRLPRPRPRPHPYPRP the “shrunken log2 fold change” value was -0.0228.

With RRIRKRPPRLPRPRPRPHRHPRP the “shrunken log2 fold change” value was 0.023.

With RRIRKRPPRLPRPRPRPHSRPRP the “shrunken log2 fold change” value was 0.147.

With RRIRKRPPRLPRPRPRPHTQPRP the “shrunken log2 fold change” value was 0.13.

For RRIRKRPPRLPRPRPRPHWQPRP, the “shrunken log2 fold change” value was 0.3.

With RRIRKRPPRLPRPRPRPHWYPRP the “shrunken log2 fold change” value was 0.0533.

In the case of RRIRKRPPRLPRPRPRPHYDPRP, the “shrunken log2 fold change” value is reported as 0.0324.

RRIRKRPPRLPRPRPRPHYLPRP was tested, and the “shrunken log2 fold change” value was 0.0182.

RRIRKRPPRLPRPRPRPICYPRP was tested, and the “shrunken log2 fold change” value was 0.125.

RRIRKRPPRLPRPRPRPIEYPRP was tested, and the “shrunken log2 fold change” value was -0.156.

For RRIRKRPPRLPRPRPRPIFPPRP, the “shrunken log2 fold change” value was 0.319.

For RRIRKRPPRLPRPRPRPIGPPRP, the “shrunken log2 fold change” value was 0.0335.

In the case of RRIRKRPPRLPRPRPRPIGTPRP, the “shrunken log2 fold change” value is reported as 0.105.

RRIRKRPPRLPRPRPRPIHAPRP was tested, and the “shrunken log2 fold change” value was -0.000921.
